Legend:
[1] = target: Ran; assay: cell-based or functional assay
[2] = target: human RhoA (1st to 193 residues) GST fusion protein (UniProt P61586)
[3] = target: human Rap1A (Glu63) (1st to 184th residues) (UniProt P62834)
[4] = target: human Ha-Ras (1st to 189th residues) (UniProt P01112)
[5] = target: yeast Rsr1 (1st to 272nd residues) (UniProt P13856)
Chain of yeast Rsr1 (1st to 272nd residues) (P13856 whole entry): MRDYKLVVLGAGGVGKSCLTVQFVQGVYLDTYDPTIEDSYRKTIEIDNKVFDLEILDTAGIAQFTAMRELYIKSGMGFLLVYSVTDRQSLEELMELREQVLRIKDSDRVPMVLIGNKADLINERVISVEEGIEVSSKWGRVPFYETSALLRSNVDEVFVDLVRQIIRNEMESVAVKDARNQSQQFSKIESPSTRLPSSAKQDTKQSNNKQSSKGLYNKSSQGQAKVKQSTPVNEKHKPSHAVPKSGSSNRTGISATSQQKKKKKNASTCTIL

Chain of fusion protein of human GAP3 (75th to 663rd amino acid residues) and GST (chain, as listed by the source): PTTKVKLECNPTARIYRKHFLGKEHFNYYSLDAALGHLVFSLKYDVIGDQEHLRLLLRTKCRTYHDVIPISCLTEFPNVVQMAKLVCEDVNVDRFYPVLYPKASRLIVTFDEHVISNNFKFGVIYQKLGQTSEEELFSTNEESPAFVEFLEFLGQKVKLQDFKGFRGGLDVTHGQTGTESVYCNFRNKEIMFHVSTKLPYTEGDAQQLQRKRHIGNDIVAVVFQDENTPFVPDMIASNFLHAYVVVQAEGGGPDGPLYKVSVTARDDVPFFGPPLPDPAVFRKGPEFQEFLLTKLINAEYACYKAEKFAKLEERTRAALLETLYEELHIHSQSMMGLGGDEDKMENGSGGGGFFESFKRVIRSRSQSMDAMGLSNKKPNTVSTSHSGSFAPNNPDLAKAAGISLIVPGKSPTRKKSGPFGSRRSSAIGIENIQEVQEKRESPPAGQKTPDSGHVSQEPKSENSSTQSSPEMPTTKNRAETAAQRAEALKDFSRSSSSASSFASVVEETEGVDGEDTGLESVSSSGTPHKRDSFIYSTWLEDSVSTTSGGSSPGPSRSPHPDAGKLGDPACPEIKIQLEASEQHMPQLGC
Chain of human Ha-Ras (1st to 189th residues) (P01112 whole entry, looked up): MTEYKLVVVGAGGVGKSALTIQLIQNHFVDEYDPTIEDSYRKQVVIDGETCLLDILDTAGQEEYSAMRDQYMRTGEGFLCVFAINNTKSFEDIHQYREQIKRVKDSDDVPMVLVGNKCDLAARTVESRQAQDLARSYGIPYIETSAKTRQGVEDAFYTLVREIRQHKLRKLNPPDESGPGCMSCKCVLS
Chain of human Rap1A (Glu63) (1st to 184th residues) (P62834 whole entry, looked up): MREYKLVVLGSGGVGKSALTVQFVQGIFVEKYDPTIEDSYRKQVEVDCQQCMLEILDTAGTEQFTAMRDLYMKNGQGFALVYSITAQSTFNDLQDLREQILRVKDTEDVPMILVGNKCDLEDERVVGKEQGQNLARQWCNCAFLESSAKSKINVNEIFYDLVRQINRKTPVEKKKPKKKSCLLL
Chain of human RhoA (1st to 193 residues) GST fusion protein (P61586 whole entry, the tested form may be a part): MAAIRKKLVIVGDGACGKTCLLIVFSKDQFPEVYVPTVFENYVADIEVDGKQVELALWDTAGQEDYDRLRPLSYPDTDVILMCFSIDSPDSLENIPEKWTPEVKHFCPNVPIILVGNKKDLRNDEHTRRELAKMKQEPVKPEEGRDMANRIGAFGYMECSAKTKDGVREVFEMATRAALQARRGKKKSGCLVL

Q: “fusion protein of human GAP3 (75th to 663rd amino acid residues) and GST (from UniProt P47736 75-663) (enzyme)” was tested. Which EC16 (µg/ml), activation of Ran GTPase [1] did it give?
A: The EC16 (µg/ml), activation of Ran GTPase was 130 µg/mL.

Q: Which results are given for “fusion protein of human GAP3 (75th to 663rd amino acid residues) and GST”?
A: Stimulation (times) of GTPase activity [2]: 0 times; Stimulation (times) of GTPase activity [3]: 10 times; Stimulation (times) of GTPase activity [4]: 0 times; Stimulation (times) of GTPase activity [5]: 7 times

Q: For NF1-GDR(Ras GAP) (enzyme), which EC16 (µg/ml), activation of Ran GTPase [1] is on record?
A: The EC16 (µg/ml), activation of Ran GTPase was 300 µg/mL.

Q: Which EC16 (µg/ml), activation of Ran GTPase [1] does the source give for p190C(Rho GAP) (enzyme) here?
A: The EC16 (µg/ml), activation of Ran GTPase was 150 µg/mL.
